Results as given in patent US20120309051A1 (UNIVERSITY OF MEDICINE AND DENTISTRY OF NEW JERSEY, published 2012).

Target: T1, GFP-MG53 (GFP fused to the amino-terminus of full-length mouse MG53) (mouse, UniProt Q1XH17 1-477)
T1 sequence: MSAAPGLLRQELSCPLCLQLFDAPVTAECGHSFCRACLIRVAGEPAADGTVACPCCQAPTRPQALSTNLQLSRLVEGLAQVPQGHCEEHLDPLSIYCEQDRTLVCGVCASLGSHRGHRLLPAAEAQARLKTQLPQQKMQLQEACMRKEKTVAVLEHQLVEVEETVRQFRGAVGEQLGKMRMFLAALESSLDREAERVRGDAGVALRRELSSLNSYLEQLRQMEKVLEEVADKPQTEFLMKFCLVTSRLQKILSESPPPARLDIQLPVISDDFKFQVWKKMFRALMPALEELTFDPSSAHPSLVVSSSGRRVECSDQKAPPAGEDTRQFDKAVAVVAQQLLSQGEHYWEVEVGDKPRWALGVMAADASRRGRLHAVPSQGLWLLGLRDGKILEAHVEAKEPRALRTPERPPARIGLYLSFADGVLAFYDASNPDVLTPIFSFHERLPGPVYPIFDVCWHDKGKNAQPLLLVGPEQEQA
Assay: cell-based or functional assay

B1: caveolin-3 (recombinant, expressed from pcDNA-Cav-3) (other)
chain: MMAEEHTDLEAQIVKDIHCKEIDLVNRDPKNINEDIVKVDFEDVIAEPVGTYSFDGVWKVSYTTFTVSKYWCYRLLSTLLGVPLALLWGFLFACISFCHIWAVVPCIKSYLIEIQCISHIYSLCIRTFCNPLFAALGQVCSSIKVVLRKEV
  reduction in the appearance of filapodia-like structures (C2C12 myoblasts transfected with caveolin-3 and GFP-MG53 in a ratio of 10:1): 82%
